Results taken from patent publication US20120028912A1 (NEW YORK UNIVERSITY AND THE RESEARCH FOUNDATION OF THE …, published 2012).

Key:
[1] = biological target: T1, N-terminal biotinylated and lysine-acetylated Tat peptide (Tat AcK50) (HIV-1); assay: pull-down with the biotinylated Tat-K50ac peptide on streptavidin agarose, anti-GST Western blot
T1 construct: also called biotinylated and wild type Tat peptide; Tat peptide containing AcK50

[2] = biological target: T1, N-terminal biotinylated and …; assay: pull-down with the N-terminal biotinylated, lysine-acetylated Tat peptide on streptavidin agarose, anti-GST western blot
[3] = biological target: p300/CBP-associated factor (P/CAF), HA-tagged (human, UniProt Q92831 1-832); assay: co-immunoprecipitation from cells with anti-FLAG (FLAG-Tat), western blot with anti-HA (HA-P/CAF)
[4] = biological target: T2, Tat AcK50 peptide SYGR-AcK-KRRQRC (SEQ ID NO:50) (HIV-1); assay: NMR 2D 1H-15N HSQC
T2 construct: Synthetic peptide

B1: TIF16 (702-812) (other)
chain: RKCERVLLALFCHEPCRPLHQLATDSTFSLDQPGGTLDLTLIRARLQEKLSPPYSSPQEFAQDVGRMFKQFNKLTEDKADVQSIIGLQRFFETRMNEAFGDTKFSAVLVEP
notes: also called GST-fusion TIF1b bromodomain construct, residues 702-812 (lane 5); not shown: GST tag and linker of the pGEX4T-3 vector
binding result [1]: no binding

B2: TIF16 (624-812) (other)
chain: SATICRVCQKPGDLVMCNQCEFCFHLDCHLPALQDVPGEEWSCSLCHVLPDLKEEDGSLSLDGADSTGVVAKLSPANQRKCERVLLALFCHEPCRPLHQLATDSTFSLDQPGGTLDLTLIRARLQEKLSPPYSSPQEFAQDVGRMFKQFNKLTEDKADVQSIIGLQRFFETRMNEAFGDTKFSAVLVEP
notes: also called GST-fusion TIF1b bromodomain-containing construct, residues 624-812 (lane 6); the sheet prints 'TIF16'; not shown: GST tag and linker of the pGEX4T-3 vector
binding result [1]: no binding

B3: GST-fusion bromodomain from TIF1 (other)
chain: KLSPANQRKCERVLLALFCHEPCRPLHQLATDSTFSLDQPGGTLDLTLIRARLQEKLSPPYSSPQEFAQDVGRMFKQFNKLTEDKADVQSIIGLQRFFETRMNEAFGDTKFSAVLVEP
notes: domain: bromodomain; also called bromodomain of TIF1; TIF1b
binding result [2]: no binding

B4: CBP (1082-1317) (other)
chain: KKIFKPEELRQALMPTLEALYRQDPESLPFRQPVDPQLLGIPDYFDIVKNPMDLSTIKRKLDTGQYQEPWQYVDDVWLMFNNAWLYNRKTSRVYKFCSKLAEVFEQEIDPVMQSLGYCCGRKYEFSPQTLCCYGKQLCTIPRDAAYYSYQNRYHFCEKCFTEIQGENVTLGDDPSQPQTTISKDQFEKKKNDTLDPEPFVDCKECGRKMHQICVLHYDIIWPSGFVCDNCLKKTGR
notes: also called GST-fusion CBP bromodomain-containing construct, residues 1082-1317 (lane 4); not shown: GST tag and linker of the pGEX4T-3 vector
binding result [1]: no binding

B5: HIV-1 Tat protein, wild type (other)
chain: MEPVDPRLEPWKHPGSQPKTASNNCYCKRCCLHCQVCFTKKGLGISYGRKKRRQRRRAPQDSKTHQVSLSKQPASQPRGDPTGPKESKKKVERETETDPED
notes: also called Tat-KK; wild type Tat
binding result [3]: binds

B6: HIV-1 Tat double mutant K50R/K51R (other)
chain: MEPVDPRLEPWKHPGSQPKTASNNCYCKRCCLHCQVCFTKKGLGISYGRRRRRQRRRAPQDSKTHQVSLSKQPASQPRGDPTGPKESKKKVERETETDPED
notes: also called Tat-RR; Tat K50R/K51R mutant protein
binding result [3]: no binding

B7: bromodomain of P/CAF (residues 719-832 of SEQ ID NO:2) (other)
chain: SKEPRDPDQLYSTLKSILQQVKSHQSAWPFMEPVKRTEAPGYYEVIRFPMDLKTMSERLKNRYYVSKKLFMADLQRVFTNCKEYNAAESEYYKCANILEKFFFSKIKEAGLIDK
notes: also called P/CAF bromodomain; PCAF bromodomain
Kd [4]: ~20 µM
